Experimental data: publication doi:10.1101/2021.02.17.431757 (bioRxiv, 2021)

Molecular target: GST-TopBP1 (aa 32-1522) His, recombinant (UniProt Q92547 32-1522)
Test: pull-down

Sequence of GST-TopBP1 (aa 32-1522) His, recombinant (Q92547 32-1522): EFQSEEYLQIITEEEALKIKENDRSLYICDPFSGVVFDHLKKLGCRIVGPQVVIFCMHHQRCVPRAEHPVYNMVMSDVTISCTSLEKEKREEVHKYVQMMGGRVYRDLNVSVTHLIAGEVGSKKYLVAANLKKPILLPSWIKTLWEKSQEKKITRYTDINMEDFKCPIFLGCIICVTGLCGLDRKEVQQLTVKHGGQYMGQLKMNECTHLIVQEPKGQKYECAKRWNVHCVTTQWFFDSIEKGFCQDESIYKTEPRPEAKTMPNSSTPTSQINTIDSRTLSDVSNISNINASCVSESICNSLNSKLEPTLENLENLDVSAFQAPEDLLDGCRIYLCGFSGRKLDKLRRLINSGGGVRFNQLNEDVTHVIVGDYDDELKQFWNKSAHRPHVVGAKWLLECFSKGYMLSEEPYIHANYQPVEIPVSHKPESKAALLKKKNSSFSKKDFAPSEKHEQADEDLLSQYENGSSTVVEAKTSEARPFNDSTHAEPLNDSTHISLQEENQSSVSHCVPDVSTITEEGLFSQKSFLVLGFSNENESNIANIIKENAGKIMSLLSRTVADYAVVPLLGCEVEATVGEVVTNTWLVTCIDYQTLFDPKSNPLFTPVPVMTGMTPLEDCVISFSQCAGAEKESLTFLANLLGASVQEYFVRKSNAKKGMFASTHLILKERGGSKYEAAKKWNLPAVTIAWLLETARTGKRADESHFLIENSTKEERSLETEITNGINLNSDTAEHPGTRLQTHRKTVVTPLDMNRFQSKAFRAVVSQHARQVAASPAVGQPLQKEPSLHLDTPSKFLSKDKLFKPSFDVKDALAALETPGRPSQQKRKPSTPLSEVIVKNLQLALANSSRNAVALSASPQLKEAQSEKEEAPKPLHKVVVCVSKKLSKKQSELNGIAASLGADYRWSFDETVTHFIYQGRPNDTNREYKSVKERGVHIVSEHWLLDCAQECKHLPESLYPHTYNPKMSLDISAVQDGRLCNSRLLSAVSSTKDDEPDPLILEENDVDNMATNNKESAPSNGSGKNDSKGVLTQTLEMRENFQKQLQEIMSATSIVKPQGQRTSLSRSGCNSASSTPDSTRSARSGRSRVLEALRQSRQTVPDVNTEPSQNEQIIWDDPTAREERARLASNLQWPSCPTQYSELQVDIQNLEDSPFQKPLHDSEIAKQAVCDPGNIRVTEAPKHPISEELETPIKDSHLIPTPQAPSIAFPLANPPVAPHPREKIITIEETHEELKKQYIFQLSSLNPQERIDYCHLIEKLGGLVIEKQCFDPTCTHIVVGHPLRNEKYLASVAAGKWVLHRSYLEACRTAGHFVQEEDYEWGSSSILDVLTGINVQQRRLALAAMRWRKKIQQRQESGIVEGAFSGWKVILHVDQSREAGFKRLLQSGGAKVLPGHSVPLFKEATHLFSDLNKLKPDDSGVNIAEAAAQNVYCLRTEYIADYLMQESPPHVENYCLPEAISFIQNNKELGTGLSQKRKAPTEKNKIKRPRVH

B1: His-E2-S23D (amino acids 1-200), recombinant (domain or fragment, human papillomavirus 16 (HPV16), UniProt P03120 1-200, looked up)
chain: METLCQRLNVCQDKILTHYENDDTDLRDHIDYWKHMRLECAIYYKAREMGFKHINHQVVPTLAVSKNKALQAIELQLTLETIYNSQYSNEKWTLQDVSLEVYLTAPTGCIKKHGYTVEVQFDGDICNTMHYTNWTHIYICEEASVTVVEGQVDYYGLYYVHEGIRTYFVQFKDDAEKYSKNKVWEVHAGGQVILCPTSVF
B1: binds.
